Source: article PMC11286949, “Structural basis of tRNA recognition by the widespread OB fold”
Changes are numbered by the printed parent chain.

What was measured:
Settings in all cases: protein: recombinant; tags: His-MBP removed; tRNA fold
[1] = molecular target: T1, Arc1p dN (Saccharomyces cerevisiae, UniProt P46672 132-376, del1-131); assay: competition fluorescence polarization; ITC (Arc1p): 25 mM Tris-HCl pH 7.4, 150 mM NaCl, 2 mM MgCl2, 25 °C. FP and competition FP: 25 mM Tris-HCl pH 7.5, 150 mM NaCl (Arc1p) or 50 mM NaCl (Trbp111), 2 mM MgCl2, room temperature
T1 sequence: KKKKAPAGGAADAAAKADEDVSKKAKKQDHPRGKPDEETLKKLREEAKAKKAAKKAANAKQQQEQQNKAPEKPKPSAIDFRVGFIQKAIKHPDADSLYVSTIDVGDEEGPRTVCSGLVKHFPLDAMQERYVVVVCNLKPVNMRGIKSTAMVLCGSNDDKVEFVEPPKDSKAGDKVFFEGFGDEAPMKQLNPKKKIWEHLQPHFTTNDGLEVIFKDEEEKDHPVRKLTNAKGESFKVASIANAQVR

[2] = molecular target: T2, Arc1p (Saccharomyces cerevisiae, UniProt P46672 1-376); assay: as above
T2 sequence: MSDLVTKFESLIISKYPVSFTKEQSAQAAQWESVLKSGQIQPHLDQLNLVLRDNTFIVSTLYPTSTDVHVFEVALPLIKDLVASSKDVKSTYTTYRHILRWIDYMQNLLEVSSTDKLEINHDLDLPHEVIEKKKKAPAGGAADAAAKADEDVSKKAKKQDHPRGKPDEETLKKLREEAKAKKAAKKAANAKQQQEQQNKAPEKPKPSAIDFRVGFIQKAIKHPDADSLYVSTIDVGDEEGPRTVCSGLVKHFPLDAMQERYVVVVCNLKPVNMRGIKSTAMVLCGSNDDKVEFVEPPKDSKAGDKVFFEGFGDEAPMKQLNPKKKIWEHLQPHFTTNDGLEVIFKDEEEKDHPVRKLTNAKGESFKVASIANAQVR

[3] = molecular target: T3, Arc1p dN V271A/M273A/M281A (Saccharomyces cerevisiae, UniProt P46672 132-376, V271A;M273A;M281A;del1-131); assay: ITC; ITC (Arc1p): 25 mM Tris-HCl pH 7.4, 150 mM NaCl, 2 mM MgCl2, 25 °C. FP and competition FP: 25 mM Tris-HCl pH 7.5, 150 mM NaCl (Arc1p) or 50 mM NaCl (Trbp111), 2 mM MgCl2, room temperature
T3 sequence: T1 sequence with V140A, M142A, M150A

[4] = molecular target: T4, Arc1p dN M281A (Saccharomyces cerevisiae, UniProt P46672 132-376, M281A;del1-131); assay: as above
T4 sequence: T1 sequence with M150A

[5] = molecular target: T5, Arc1p dN S278A/M281A (Saccharomyces cerevisiae, UniProt P46672 132-376, S278A;M281A;del1-131); assay: as above
T5 sequence: T1 sequence with S147A, M150A

[6] = molecular target: T6, Arc1p dN R274A (Saccharomyces cerevisiae, UniProt P46672 132-376, R274A;del1-131); assay: as above
T6 sequence: T1 sequence with R143A

B1: tRNAIle WT (structured_RNA)
RNA: AGGCUUGUAGCUCAGGUGGUUAGAGCGCACCCCUGAUAAGGGUGAGGUCGGUGGUUCAAGUCCACUCAGGCCUACCA
Binder B1 has an IC50 [1] of 0.363 ± 0.0964 µM, an IC50 [2] of 0.948 ± 0.241 µM and a Kd [3] of 0.544 ± 0.215 µM. The Kd [4] was 0.384 ± 0.048 µM, the Kd [5] was 1.43 ± 0.379 µM and the Kd [6] was 2.98 ± 0.674 µM.
